Kd and stoichiometry N data for 2 substances are collected here from article PMC2762480.

Test [1] addresses s-dEGFRΔV (Drosophila EGF receptor extracellular region, domains I to IV) (Drosophila melanogaster). In words: AUC.
Test [2] addresses s-dEGFRΔV/Spitz complex (Drosophila melanogaster) (UniProt Q01083). In words: AUC.

As a reminder, the Kd is the free concentration of one partner at which half of the binding sites on the other are occupied at equilibrium, for simple one-to-one binding. Regarding “s-dEGFRΔV (Drosophila EGF receptor extracellular region, domains I to IV) (domain or fragment)”, in test [1], the Kd was 40 µM.
A word on the stoichiometry N: it is a count of units in the complex or per binding partner. In test [2], “s-dEGFRΔV/Spitz complex (from UniProt Q01083 29-143)” displayed a stoichiometry N of 2.
